# Measured values as given in patent US20260242448A1 (INSTITUTE OF MICROBIOLOGY CHINESE ACADEMY OF SCIENCES, published 2026).
# What was measured:
# [1] = biological target: T1, RBD of the S protein of the BA.1.1 strain (SARS-CoV-2 BA.1.1 strain); test: ELISA on plate-coated RBD (1 µg/mL), HRP anti-human Fc detection, OD450
# T1 construct: domain: RBD; also called BA.1.1 RBD
# [2] = biological target: T2, S protein of the SARS-CoV-2 BF.7 strain on pseudo-virus (SARS-CoV-2 BF.7 strain); test: cell-based or functional assay
# [3] = biological target: S protein of the SARS-CoV-2 XBB.1.16 strain on pseudo-virus (SARS-CoV-2 XBB.1.16 strain); test: cell-based or functional assay
# [4] = biological target: T3, S protein of the SARS-CoV-2 XBB strain on pseudo-virus (SARS-CoV-2 XBB strain); test: cell-based or functional assay
# [5] = biological target: S protein of the SARS-CoV-2 BA.2 strain on pseudo-virus (SARS-CoV-2 BA.2 strain); test: cell-based or functional assay
# [6] = biological target: S protein of the SARS-CoV-2 BA.3 strain on pseudo-virus (SARS-CoV-2 BA.3 strain); test: cell-based or functional assay
# [7] = biological target: T4, S protein of the SARS-CoV-2 BQ.1 strain on pseudo-virus (SARS-CoV-2 BQ.1 strain); test: cell-based or functional assay
# [8] = biological target: T5, S protein of the SARS-CoV-2 XBB.1.5 strain on pseudo-virus (SARS-CoV-2 XBB.1.5 strain); test: cell-based or functional assay
# [9] = biological target: T6, S protein of the SARS-CoV-2 BA.2.75 strain on pseudo-virus (SARS-CoV-2 BA.2.75 strain); test: cell-based or functional assay
# [10] = biological target: T7, S protein of the SARS-CoV-2 BA.1 strain on pseudo-virus (SARS-CoV-2 BA.1 strain); test: cell-based or functional assay
# [11] = biological target: S protein of the SARS-CoV-2 BA.1.1 strain on pseudo-virus (SARS-CoV-2 BA.1.1 strain); test: cell-based or functional assay
# [12] = biological target: T8, S protein of the SARS-CoV-2 BQ.1.1 strain on pseudo-virus (SARS-CoV-2 BQ.1.1 strain); test: cell-based or functional assay
# [13] = biological target: T9, S protein of the SARS-CoV-2 BA.4/5 strains on pseudo-virus (SARS-CoV-2 BA.4/5 strain); test: cell-based or functional assay
# [14] = biological target: T10, RBD of the S protein of the BA.2.12.1 strain (SARS-CoV-2 BA.2.12.1 strain); test: ELISA on plate-coated RBD (1 µg/mL), HRP anti-human Fc detection, OD450
# T10 construct: domain: RBD; also called BA.2.12.1 RBD
# [15] = biological target: T11, SARS-CoV-2 (BA.5) Spike RBD (SARS-CoV-2 BA.5 strain); test: as above
# T11 construct: domain: RBD; also called BA.5 RBD
# [16] = biological target: T2, S protein of the SARS-CoV-2 BF.7 strain …; test: cell-based or functional assay; remark: listed apart in the source
# [17] = biological target: S protein of the SARS-CoV-2 Delta strain on pseudo-virus (SARS-CoV-2 Delta strain); test: cell-based or functional assay
# [18] = biological target: T3, S protein of the SARS-CoV-2 XBB strain …; test: cell-based or functional assay; remark: listed apart in the source
# [19] = biological target: T4, S protein of the SARS-CoV-2 BQ.1 strain …; test: cell-based or functional assay; remark: listed apart in the source
# [20] = biological target: T5, S protein of the SARS-CoV-2 XBB.1.5 …; test: cell-based or functional assay; remark: listed apart in the source
# [21] = biological target: T6, S protein of the SARS-CoV-2 BA.2.75 …; test: cell-based or functional assay; remark: listed apart in the source
# [22] = biological target: T7, S protein of the SARS-CoV-2 BA.1 strain …; test: cell-based or functional assay; remark: listed apart in the source
# [23] = biological target: T8, S protein of the SARS-CoV-2 BQ.1.1 …; test: cell-based or functional assay; remark: listed apart in the source
# [24] = biological target: T9, S protein of the SARS-CoV-2 BA.4/5 …; test: cell-based or functional assay; remark: listed apart in the source
binder,measurement,setting,value
"monoclonal antibody L4.65 (antibody, V domains shown, also called monoclonal antibody 65; 65IgG) VH: QITLKESGPTLVKPTQTLTLTCTFSGFSLSTSGVGVAWIRQPPGKALEWLALIYWDNDKRSSPSLNNRLTITKDTSKNQVVLTMTNMDPEDTATYYCAHFFSHYDSSNYYYGSWFDPWGQGTLVTVSS VL: EIVLTQSPGTLSLSPGERATLSCRASQSFDSRYLGWYQQKSGQAPRLLIYGASSRATGIPDRFSGSGSGTDFTLTISRLEPEDFAVYYCQQFGDSPFTFGQGTKLEIKR",EC50,[1],0.00592 nM
same,Neutralization Effects (IC50) against SARS-CoV-2 pseudo-viruses,[2],0.000446 µg/mL
same,Neutralization Effects (IC50) against SARS-CoV-2 pseudo-viruses,[3],0.0103 µg/mL
same,Neutralization Effects (IC50) against SARS-CoV-2 pseudo-viruses,[4],0.00335 µg/mL
same,Neutralization Effects (IC50) against SARS-CoV-2 pseudo-viruses,[5],0.00039 µg/mL
same,Neutralization Effects (IC50) against SARS-CoV-2 pseudo-viruses,[6],0.00044 µg/mL
same,Neutralization Effects (IC50) against SARS-CoV-2 pseudo-viruses,[7],2.09 µg/mL
same,Neutralization Effects (IC50) against SARS-CoV-2 pseudo-viruses,[8],0.0137 µg/mL
same,Neutralization Effects (IC50) against SARS-CoV-2 pseudo-viruses,[9],0.00194 µg/mL
same,Neutralization Effects (IC50) against SARS-CoV-2 pseudo-viruses,[10],0.000394 µg/mL
same,Neutralization Effects (IC50) against SARS-CoV-2 pseudo-viruses,[11],0.00028 µg/mL
same,Neutralization Effects (IC50) against SARS-CoV-2 pseudo-viruses,[12],4.58 µg/mL
same,Neutralization Effects (IC50) against SARS-CoV-2 pseudo-viruses,[13],0.000377 µg/mL
same,EC50,[14],0.0641 nM
same,EC50,[15],0.105 nM
same,Neutralization activity (IC50) against pseudo-virus,[16],0.00212 µg/mL
same,Neutralization activity (IC50) against pseudo-virus,[17],0.00252 µg/mL
same,Neutralization activity (IC50) against pseudo-virus,[18],0.0214 µg/mL
same,Neutralization activity (IC50) against pseudo-virus,[19],> 2 µg/mL
same,Neutralization activity (IC50) against pseudo-virus,[20],0.0541 µg/mL
same,Neutralization activity (IC50) against pseudo-virus,[21],0.0112 µg/mL
same,Neutralization activity (IC50) against pseudo-virus,[22],0.00135 µg/mL
same,Neutralization activity (IC50) against pseudo-virus,[23],> 2 µg/mL
same,Neutralization activity (IC50) against pseudo-virus,[24],0.00138 µg/mL
"monoclonal antibody CoV56 (antibody, V domains shown, also called monoclonal antibody 56; 56IgG) VH: EVQLVESGGGVVQPGGSLRLSCAVSGFTFDDYAMHWVRQAPGKGLDWVSLISGDGSYTYYADSVKGRFTISRDSSKNSLYLQMNSLRTEDTALYYCAKAQTPTLWWLQDAFDIWGQGTMVTVSS VL: not shown",EC50,[1],0.0454 nM
same,Neutralization Effects (IC50) against SARS-CoV-2 pseudo-viruses,[2],11.7 µg/mL
same,Neutralization Effects (IC50) against SARS-CoV-2 pseudo-viruses,[3],21.7 µg/mL
same,Neutralization Effects (IC50) against SARS-CoV-2 pseudo-viruses,[4],15.9 µg/mL
same,Neutralization Effects (IC50) against SARS-CoV-2 pseudo-viruses,[5],8.32 µg/mL
same,Neutralization Effects (IC50) against SARS-CoV-2 pseudo-viruses,[6],18.5 µg/mL
same,Neutralization Effects (IC50) against SARS-CoV-2 pseudo-viruses,[7],19.6 µg/mL
same,Neutralization Effects (IC50) against SARS-CoV-2 pseudo-viruses,[8],11.8 µg/mL
same,Neutralization Effects (IC50) against SARS-CoV-2 pseudo-viruses,[9],58.8 µg/mL
same,Neutralization Effects (IC50) against SARS-CoV-2 pseudo-viruses,[10],14.8 µg/mL
same,Neutralization Effects (IC50) against SARS-CoV-2 pseudo-viruses,[11],10.8 µg/mL
same,Neutralization Effects (IC50) against SARS-CoV-2 pseudo-viruses,[12],15.9 µg/mL
same,Neutralization Effects (IC50) against SARS-CoV-2 pseudo-viruses,[13],7.53 µg/mL
same,EC50,[14],0.0839 nM
same,EC50,[15],0.167 nM
same,Neutralization activity (IC50) against pseudo-virus,[16],> 2 µg/mL
same,Neutralization activity (IC50) against pseudo-virus,[17],> 2 µg/mL
same,Neutralization activity (IC50) against pseudo-virus,[18],> 2 µg/mL
same,Neutralization activity (IC50) against pseudo-virus,[19],> 2 µg/mL
same,Neutralization activity (IC50) against pseudo-virus,[20],> 2 µg/mL
same,Neutralization activity (IC50) against pseudo-virus,[21],> 2 µg/mL
same,Neutralization activity (IC50) against pseudo-virus,[22],> 2 µg/mL
same,Neutralization activity (IC50) against pseudo-virus,[23],> 2 µg/mL
same,Neutralization activity (IC50) against pseudo-virus,[24],> 2 µg/mL
